Test results published in patent publication US20190338029A1 (Y BIOLOGICS, published 2019).
Numbering of substitutions follows the chain as printed.

T1: hCD3εε chains
T1 epsilon: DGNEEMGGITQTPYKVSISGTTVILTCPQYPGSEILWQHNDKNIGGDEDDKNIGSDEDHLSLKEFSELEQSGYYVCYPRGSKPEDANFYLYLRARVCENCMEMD

T2: hCD3εγ chains
T2 construct: copies: 1 + 1
T2 epsilon: T1 epsilon
T2 gamma: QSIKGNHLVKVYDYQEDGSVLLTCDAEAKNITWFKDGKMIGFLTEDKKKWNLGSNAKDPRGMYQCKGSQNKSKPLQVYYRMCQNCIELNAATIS

B1: ACE-05 (bispecific antibody)
heavy 1: not shown
heavy 2: not shown
light: QLVLTQPPSVSGAPGQRVTISCTGSSSNIGAGYDVHWYQQLPGAAPKLLIYGDINRPSGVPDRFSGSKSGISASLAITGLQAEDEADYYCQSYDSSLSGGVFGGGTKLTVLRTVAAPSVFIFPPSDEQLKSGTASVVCLLNNFYPREAKVQWKVDNALQSGNSQESVTEQDSKDSTYSLSSTLTLSKADYEKHKVYACEVTHQGLSSPVTKSFNRGEC
notes: Contains a GGGGS linker between the hinge and the Fv; also called ALiCE molecule ACE-05
B2: YBL-007 (antibody, V domains shown)
VH: QMQLVQSGAEVKKPGSSVKVSCKASGGTFSSYAISWVRQAPGQGLEWMGRIIPILGIANYAQKFQGRVTITADKSTSTAYMELSSLRSEDTAVYYCAKPRDGYNLVAFDIWGQGTMVTVSS
VL: QLVLTQPPSVSGAPGQRVTISCTGSSSNIGAGYDVHWYQQLPGAAPKLLIYGDINRPSGVPDRFSGSKSGISASLAITGLQAEDEADYYCQSYDSSLSGGVFGGGTKLTVLR
notes: also called parental anti-PD-L1 antibody; anti-hPD-L1 antibody
B3: ACE-05-VL2 (other)
heavy: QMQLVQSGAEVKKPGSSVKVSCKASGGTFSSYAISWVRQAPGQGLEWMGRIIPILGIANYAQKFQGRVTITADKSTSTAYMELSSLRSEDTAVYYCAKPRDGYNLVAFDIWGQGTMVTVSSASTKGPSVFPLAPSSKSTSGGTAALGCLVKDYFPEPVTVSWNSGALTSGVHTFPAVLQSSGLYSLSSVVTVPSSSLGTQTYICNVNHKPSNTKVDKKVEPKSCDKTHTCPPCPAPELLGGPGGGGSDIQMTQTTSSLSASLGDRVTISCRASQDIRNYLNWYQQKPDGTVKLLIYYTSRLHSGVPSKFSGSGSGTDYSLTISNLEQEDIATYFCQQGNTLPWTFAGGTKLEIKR
light: B1 light
B4: UCHT1 (an anti-CD3 antibody from BioLegend, USA) (antibody, V domains shown)
VH: EVQLQQSGPELVKPGPSMKISCKASGYSFTGYTMNWVKQSHGKNLEWMGLINPYKGVSTYNQKFKDKATLTVDKSSSTAYMELLSLTSEDSAVYYCARSGYYGDSDWYFDVWGQGTTLTVFS
VL: DIQMTQTTSSLSASLGDRVTISCRASQDIRNYLNWYQQKPDGTVKLLIYYTSRLHSGVPSKFSGSGSGTDYSLTISNLEQEDIATYFCQQGNTLPWTFAGGTKLEIKR
notes: Bought antibody; also called parental anti-CD3 antibody
B5: ACE-09 (bispecific antibody)
heavy 1: not shown
heavy 2: not shown
light: B1 light with T113S

What was measured:
hCD3εε chains = target: T1, hCD3εε chains; test: ELISA on hCD3εε chains
Method: (§1) Next day, plate was washed once with 200 μl of PBST, and then a surface blocking was performed at room temperature with 5% skim milk for 1-2 hours. […] Each well was then washed three times with 200 μl of PB ST to remove unbound samples. Horseradish peroxidase (HRP)-conjugated anti-human IgG (Fab specific) antibodies (Sigma, USA) were added to wells at a ratio of 1:1000 for a reaction at room temperature. After three times of washing with 200 ul of PBST, a color reaction of HRP was induced using TMB solution (GEhealthcare, USA) in a volume of 10 μl/well. The reaction was terminated by using a stop solution (2.5 M H2504, 100 μl/well). A spectrophotometer was used to measure the absorbance at a wavelength of A450 to calculate the binding affinity.

CD3 (Sino Biological) = test: ELISA on CD3, curve fit
Method: as §1

human PD-L1 [1] = target: T3, human PD-L1 (human, UniProt Q9NZQ7 19-238, limits assumed); test: label-free kinetics on OCTET QKe, PD-L1 on AHC biosensor; PD-L1 fixed on AHC biosensor (OCTET QKe)
T3 construct: also called hPD-L1
T3 sequence (Q9NZQ7 19-238 limits assumed): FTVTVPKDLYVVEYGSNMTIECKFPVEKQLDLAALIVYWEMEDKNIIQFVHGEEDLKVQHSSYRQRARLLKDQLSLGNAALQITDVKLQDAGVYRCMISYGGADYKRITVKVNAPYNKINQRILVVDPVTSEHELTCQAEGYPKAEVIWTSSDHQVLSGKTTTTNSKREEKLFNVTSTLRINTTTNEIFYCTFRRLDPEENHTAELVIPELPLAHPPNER
Method: (§2) Measurement of label-free kinetics (protein-protein interaction) using OCTET® QKe system (ForteBio, USA) was performed by using an anti-human IgG capture (AHC) biosensor (ForteBio, USA) for human PD-L1 and amine reactive (ARG2) biosensor for CD3εδ chains. […] Sensorgrams were collected over time.

[2] = target: T4, PD-L1 (PD-1/PD-L1 Blockade Bioassay kit, Promega) (UniProt Q9NZQ7 19-290, limits assumed); test: cell-based or functional assay
T4 sequence (Q9NZQ7 19-290 limits assumed): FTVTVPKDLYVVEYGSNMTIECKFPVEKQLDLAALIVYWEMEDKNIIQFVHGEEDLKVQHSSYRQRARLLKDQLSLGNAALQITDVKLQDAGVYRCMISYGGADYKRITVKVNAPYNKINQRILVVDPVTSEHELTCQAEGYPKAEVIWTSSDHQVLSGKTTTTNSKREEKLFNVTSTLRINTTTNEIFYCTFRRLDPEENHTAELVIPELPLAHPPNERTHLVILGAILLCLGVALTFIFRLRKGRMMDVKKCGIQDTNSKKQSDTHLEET

hCD3εγ chains [3] = target: T2, hCD3εγ chains; test: ELISA on hCD3εγ chains, curve fit of a flat curve
Method: as §1

[4] = target: T4, PD-L1 (PD-1/PD-L1 Blockade Bioassay …); test: cell-based or functional assay; remark: listed apart in the source
human PD-L1 [5] = target: T3, human PD-L1; test: label-free kinetics on OCTET QKe (called SPR in the text), PD-L1 on AHC biosensor
Method: as §2

hCD3εγ chains [6] = target: T2, hCD3εγ chains; test: ELISA on hCD3εγ chains, curve fit
Method: as §1

[7] = target: T5, CD3 on Jurkat luciferase reporter cells (Homo sapiens (Human), UniProt P07766 23-207; P09693 23-182; P04234 22-171); test: flow cytometry on Jurkat_NFAT_Luc2P cells, FITC-A; histogram shifted to about 10^3
T5 construct: also called CD3 positive Jurkat cell line with NFAT luciferase reporter

Binder	Bmax (CD3 (Sino Biological))	Kd (CD3 (Sino Biological))	EC50 (read off the curve); luciferase RLU in the PD-1/PD-L1 Blockade Bioassay, blocked partner PD-1 [2]	EC50; luciferase RLU in the PD-1/PD-L1 Blockade Bioassay, blocked partner PD-1 [4]	further results
B1	3.97 O.D. 450 nm	17.6 nM	~0.02 µg/mL	4.29 pM	binding result (hCD3εε chains): no binding (tested: 100 nM); Kd (human PD-L1 [1]): < 0.0109 nM; Kd (fit value of a flat curve) (hCD3εγ chains [3]): 0.035 nM
B2			~0.05 µg/mL	11.2 pM	Kd (human PD-L1 [5]): 0.0132 nM
B3			~0.08 µg/mL		
B4	3.67 O.D. 450 nm	2.69 nM			Kd (hCD3εγ chains [6]): 33.3 nM; Fold [7]: 35 fold over hIgG
B5	4.04 O.D. 450 nm	21.1 nM			
